Measurements from article PMC11846418 (Cancer Cell International, 2025).

Molecular target: HA-CDK1 (UniProt P06493 1-297)
Test: pull-down

Sequence of HA-CDK1 (P06493 whole entry): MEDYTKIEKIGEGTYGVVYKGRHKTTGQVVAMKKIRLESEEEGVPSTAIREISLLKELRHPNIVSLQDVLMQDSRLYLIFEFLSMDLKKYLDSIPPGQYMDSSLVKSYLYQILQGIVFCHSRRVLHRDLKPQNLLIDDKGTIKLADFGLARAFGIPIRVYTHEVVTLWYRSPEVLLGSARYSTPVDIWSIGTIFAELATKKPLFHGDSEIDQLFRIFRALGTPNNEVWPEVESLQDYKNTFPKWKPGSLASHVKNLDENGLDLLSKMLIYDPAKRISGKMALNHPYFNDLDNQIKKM

- binding result: binds
B1: GST-USP7 210-500 (domain or fragment, UniProt Q93009 210-500, looked up)
chain: HTGYVGLKNQGATCYMNSLLQTLFFTNQLRKAVYMMPTEGDDSSKSVPLALQRVFYELQHSDKPVGTKKLTKSFGWETLDSFMQHDVQELCRVLLDNVENKMKGTCVEGTIPKLFRGKMVSYIQCKEVDYRSDRREDYYDIQLSIKGKKNIFESFVDYVAVEQLDGDNKYDAGEHGLQEAEKGVKFLTLPPVLHLQLMRFMYDPQTDQNIKINDRFEFPEQLPLDEFLQKTDPKDPANYILHAVLVHSGDNHGGHYVVYLNPKGDGKWCKFDDDVVSRCTKEEAIEHNYGG
